According to paper doi:10.1101/2024.09.28.615595:

Biological target: CsrA (Escherichia coli (K-12 MG1655?)) (UniProt P69913)
Assay: EMSA
Conditions: binding buffer, pH and temperature not given

Chain of CsrA (Escherichia coli (K-12 MG1655?)) (P69913 whole entry): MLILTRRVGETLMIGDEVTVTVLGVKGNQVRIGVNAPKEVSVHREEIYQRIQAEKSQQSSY

Row | Sequence | binding | K half
1 | GGGAGAACGGUUAACUUAACGGAUGUUUCGCGGUGUGGGUGAGCAUGAUGGUUCACCGGCAUCUCAAUUCUCAUUUAAACGUACCUGCAGCGAAUGAAUACUGAAGCCACGCACGACCAAAAUGAAGCACUUACUACCGGCGCUCGCCUGCGUAAUGCUCGCGAACAACUAGGACUUAGUCAGCAGGCCGUUG [rodZ leader] | binds | 
2 | GGGAGGUAAUUUUGGUUUUCCCGGCCAAAAAUGGACAAUAACCACCAGGAAAAGGAGACGGAAUGCAUCACGCCACCCCGCUUAUCACCACCAUUGUUGGCGGCCUUGUGCUCGCCUUUAUCCUCGGCAUGCUGGCCAAUAAACUACGUAUUUCUCCUCUGG [ybaL leader] | binds | 
3 | GGGAGAUUUGUGUUUAUCCCGAUUUUCGCGAUCGCAGCCGGAGUGGCGCAAUCCCUGCAAUACUUAAAUCGGUAUCAUGUGAUACGCGAGCCUCCGGAGCAUAUUUUGAACAGGUUACCUUCGAGCGCAUCGGCUUUAGCGUGCAGCGCCCACGCCCUGAAUCUCAUUGAGAAGCGAACGCUGGAUCAUGAGGAGAUGAAAGCAC [patA leader] | binds | 
4 | GGGAUAAUGCGCUUUCUUUAGCCGUUAAUAUCCACCGGCAUGGCUGCGCGCCGUGCCGGUUCCUUCUUGCUUGGCGUCACUCUUUGAAGACGCAUUCUGCAGUUUACGAUGACUACUAUUGUUGACAGCAAUCUGCCGGUUGCCCGCCCGUCAUGGGAUCAUUCUCGUCUGGAAUCACGCAUUGUGCAUCUCGGUUGCGGGGCGUUUCGCAUGC [uxuB 5' UTR mutant (UPSTR mut)] |  | 144 nM
5 | GGGAGGUUUGCUUUUAGGUUAGCGACCGAAAAUAUAAAUGAUAAUCAUUAUUAAAGCCUUUAUCAUUUUGUGGAGGAUGAUAUGGAUACGUCACUGGCUGAGGAAGUACAGCAGACCAUGGCAACACUUGCGCCCAAUCGCUUUUUCUUUAUGUCGCCGUACCGCAGUUUUACGACGUCAG [entC leader] | binds | 
